Laboratory results taken from the supplement of paper PMC10899765.

Key:
Conditions in all cases: 20 nM; 72 h
MCF10A [1] = assay: percent viability (nuclei count relative to siNT); higher = more viable cells
Protocol: (§1)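 After 72 h, cells were fixed and stained with Hoechst and anti-fibrillarin, and nucleoli per nucleus were counted with CellProfiler. Values are plate-adjusted percent effect for the one-nucleolus and 5+ nucleoli phenotypes, normalised to siNT (0%) and to the positive controls siNOL11 or siKIF11 (100%), as the mean of biological triplicates. Percent viability is the nuclei count relative to siNT.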

MCF10A [2] = assay: 5+ nucleoli phenotype percent effect (relative to siNT 0% and siKIF11 100%); higher = more cells with five or more nucleoli
Protocol: as §1

MCF10A [3] = assay: one-nucleolus phenotype percent effect (relative to siNT 0% and siNOL11 100%); higher = more cells with one nucleolus (ribosome biogenesis inhibition)
Protocol: as §1

| Sequence | percent viability (MCF10A [1]) [%] | 5+ nucleoli phenotype percent effect (MCF10A [2]) [%] | one-nucleolus phenotype percent effect (MCF10A [3]) [%] |
| --- | --- | --- | --- |
| CACUUAGCAGGUUGUAUUAUAU [hsa-miR-374c-3p] | 50.7 | 0.0114 | 0.51 |
| CAGAACAGGAGCAUAGAAAGGC [hsa-miR-4773] | 43.7 | 22.9 | -20.2 |
| CAGAAGGGGAGUUGGGAGCAGA [hsa-miR-3154] | 17.4 | -26.4 | 46.1 |
| CAGAGAAUUGUUUAAUC [hsa-miR-3123] | 124 | 54.9 | -40.8 |
| CAGAGGGAAUACAGAGGGCAAU [hsa-miR-6873-5p] | 36.7 | 7.98 | 20 |
| CAGAGUGACAAGCUGGUUAAAG [hsa-miR-5586-3p] | 98.4 | 27.8 | -14.6 |
| CAGAUCAUGGGACUGUCUCAG [hsa-miR-5694] | 66.3 | 22.8 | -16.1 |
| CAGCACCCUGUGGCUCCCACAG [hsa-miR-6871-3p] | 50.1 | 26.8 | -5.35 |
| CAGCAGCAAUUCAUGUUUUGAA [hsa-miR-424-5p] | 77.3 | -8.58 | 24 |
| CAGCAGCACACUGUGGUUUGU [hsa-miR-497-5p] | 15.2 | -38.4 | 50.2 |
| CAGCAGGAGGUGAGGGGAG [hsa-miR-6165] | 101 | 36.7 | -18.4 |
| CAGCAGGGGAGAGAGAGGAGUC [hsa-miR-6510-5p] | 27.9 | -10.7 | 20.8 |
| CAGCAGUCCCUCCCCCUG [hsa-miR-4274] | 34.1 | 7.99 | 6.47 |
| CAGCAGUGCGCAGGGCUG [hsa-miR-4519] | 27.2 | 8.89 | 8.95 |
| CAGCCACAACUACCCUGCCACU [hsa-miR-449b-3p] | 71.9 | 1.67 | -5.19 |
| CAGCCAGCCCCUGCUCACCCCU [hsa-miR-6858-3p] | 30.6 | 3.04 | 16.5 |
| CAGCCCCACAGCCUCAGA [hsa-miR-4323] | 39.3 | -13.4 | 2.83 |
| CAGCCCGGAUCCCAGCCCACUU [hsa-miR-3940-3p] | 33.5 | -8.21 | 2.08 |
| CAGCCCUCCUCCCGCACCCAAA [hsa-miR-4687-5p] | 80.6 | -6.45 | -10.4 |
| CAGCCGCCGCCUGUCUCCACAG [hsa-miR-6746-3p] | 36.2 | 7.39 | -1.13 |

| Sequence | percent viability (MCF10A [1]) [%] | 5+ nucleoli phenotype percent effect (MCF10A [2]) [%] | one-nucleolus phenotype percent effect (MCF10A [3]) [%] |
| --- | --- | --- | --- |
| CAGCCUGACAGGAACAG [hsa-miR-4293] | 33.8 | 4.42 | -6.3 |
| CAGCGGAGCCUGGAGAGAAGG [hsa-miR-7846-3p] | 41.6 | -18.4 | 11.9 |
| CAGGAAGGAGACAGGCAGUUCA [hsa-miR-6876-5p] | 21.8 | -24.5 | 10.4 |
| CAGGAAGGAUUUAGGGACAGGC [hsa-miR-4476] | 23.3 | -8.98 | 14 |
| CAGGACUUGACGGCUGCAACU [hsa-miR-8083] | 71 | 22.5 | -1.33 |
| CAGGAGGCAGUGGGCGAGCAGG [hsa-miR-4695-5p] | 54.7 | 14.2 | -5.49 |
| CAGGAGUGGGGGGUGGGACGU [hsa-miR-4433b-3p] | 65.1 | 3.45 | -5.4 |
| CAGGAUCCACAGAGCUAGUCCA [hsa-miR-4661-3p] | 31.4 | -16 | 7.03 |
| CAGGAUGUGGUCAAGUGUUGUU [hsa-miR-1265] | 123 | 67.6 | -25.1 |
| CAGGCACGGGAGCUCAGGUGAG [hsa-miR-3622a-5p] | 27.1 | -21.7 | 42.3 |
| CAGGCAGAAGUGGGGCUGACAGG [hsa-miR-6511a-5p] | 69.3 | 3.66 | 6.88 |
| CAGGCAGGGAGGUGGGACCAUG [hsa-miR-6808-5p] | 21.7 | -14.6 | 28.6 |
| CAGGCAGGUGUAGGGUGGAGC [hsa-miR-6893-5p] | 31.2 | -6.16 | -3.82 |
| CAGGCAGUGACUGUUCAGACGUC [hsa-miR-2682-5p] | 12.3 | -23.5 | 51.4 |
| CAGGCCAUAUUGUGCUGCCUCA [hsa-miR-15a-3p] | 29.6 | -27.1 | 23 |
| CAGGCGUCUGUCUACGUGGCUU [hsa-miR-3186-5p] | 23.1 | -8.59 | 27.8 |
| CAGGGAAAUGGGAAGAACUAGA [hsa-miR-5584-5p] | 53.3 | 34.8 | -19.1 |
| CAGGGAACAGCUGGGUGAGCUGCU [hsa-miR-6750-5p] | 60.6 | 27.2 | -6.66 |
| CAGGGAACCAGUUGGGGCUU [hsa-miR-6822-5p] | 20.6 | -8.39 | 20.9 |
| CAGGGAGAAGGUGGAAGUGCAGA [hsa-miR-6760-5p] | 24.8 | 29.9 | -0.928 |

| Sequence | percent viability (MCF10A [1]) [%] | 5+ nucleoli phenotype percent effect (MCF10A [2]) [%] | one-nucleolus phenotype percent effect (MCF10A [3]) [%] |
| --- | --- | --- | --- |
| CAGGGAGGCGCUCACUCUCUGCU [hsa-miR-4756-5p] | 158 | 41 | -3.87 |
| CAGGGAGGUGAAUGUGAU [hsa-miR-1321] | 20.2 | 6.81 | 19.8 |
| CAGGGCAGAGGGCACAGGAAUCUGA [hsa-miR-6735-5p] | 31.9 | -26.5 | 11.3 |
| CAGGGCAGGAAGAAGUGGACAA [hsa-miR-4436b-3p] | 20.5 | -7.65 | 31.7 |
| CAGGGCAGGGAAGGUGGGAGAG [hsa-miR-6879-5p] | 67.3 | 36.6 | -11.1 |
| CAGGGCCAGGCACAGAGUAAG [hsa-miR-6895-5p] | 41.8 | 0.712 | 13.8 |
| CAGGGCCCUGGCUUUAGCAGA [hsa-miR-7160-3p] | 41.3 | -4.58 | 14.8 |
| CAGGGCCUCACUGUAUCGCCCA [hsa-miR-4512] | 20 | 0.0146 | 18.5 |
| CAGGGCUCAGGGAUUGGAUGGAG [hsa-miR-5088] | 77.7 | 20.4 | -7.65 |
| CAGGGCUCAGGGAUUGGAUGGAGG [hsa-miR-5088-5p] | 86.9 | 15.2 | -17.9 |
| CAGGGCUGGCAGUGACAUGGGU [hsa-miR-4446-3p] | 25.9 | -5.74 | 1.33 |
| CAGGGGCUGGGGUUUCAGGUUCU [hsa-miR-6813-5p] | 23.1 | -16.1 | -4.41 |
| CAGGGGGACUGGGGGUGAGC [hsa-miR-6794-5p] | 50.1 | 7.3 | 5.76 |
| CAGGGUCAGCUGAGCAUG [hsa-miR-1178-5p] | 51.5 | 8.34 | 9.85 |
| CAGGUAGAUAUUUGAUAGGCAU [hsa-miR-3927-3p] | 24.8 | 29.3 | -16.5 |
| CAGGUCACGUCUCUGCAGUUAC [hsa-miR-370-5p] | 54.3 | 5.92 | -14.6 |
| CAGUAACAAAGAUUCAUCCUUGU [hsa-miR-802] | 81.8 | -6.89 | -6.9 |
| CAGUGAUCGUCUCUGCUGGC [hsa-miR-8079] | 41.6 | -35 | 6.32 |
| CAGUGAUUUGAGGAUUAUUGC [hsa-miR-8062] | 63.9 | -26.5 | 7.28 |
